Measured values reported in US7919580B2, “Polysaccharide-protein binding model and nano-fibril formation of a starch binding domain” (priority 2008, dated 2011).
Substitutions are numbered along the chain they refer to. Names and notes keep the numbering of the source.

Columns and labels:
[1] = target: T1, RoGACBM21 (Rhizopus oryzae, UniProt P07683); conditions: reported binding assay results; read-out: Kd (binding affinity) of soluble ligand with RoGACBM21; cited from earlier work
T1 construct: the recombinant SBD of 108 amino acid residues; 6xHis (C); made in house; host or cells: E. coli BL21-Gold (DE3), pET23a(+)

[2] = Starch binding isotherm (saturation binding assay); conditions: insoluble starch, 50 mM sodium acetate pH 5.5, 25° C., 16 h
Description: The starch binding isotherm was analyzed as a saturation binding assay as reported. Wild-type and mutant RoGACBM21 derivatives (100 μL, in 50 mM sodium acetate, pH 5.5) were mixed with 0.1 mg of prewashed insoluble starch and incubated at 25° C. with gentle stirring for 16 h. After centrifugation at 16,000×g for 10 min at 4° C., the protein concentration of the supernatant (unbound protein) was determined by BCA assay, and the amount of bound protein was calculated from the difference between the initial and unbound protein concentrations. The Kd and Bmax values were determined by fitting to the non-linear regression of the binding isotherms using a standard single-site binding model.

[3] = Fluorescence spectrophotometry of binding to βCD; conditions: intrinsic protein fluorescence, 50 mM sodium acetate pH 5.5, 25° C.; read-out: β-cyclodextrin Kd
Description: Fluorescence spectrophotometry of the binding of wild-type or mutant RoGACBM21 to βCD was recorded by measuring changes in the intrinsic protein fluorescence intensity. Experiments were performed in 50 mM sodium acetate, pH 5.5, at 25° C. using a PerkinElmer LS-55 spectrophotometer. Circular and linear carbohydrates (2 to 20 mM) were titrated into RoGACBM21 (1 μM, 2 mL), and the fluorescence-emission spectrum was monitored at 350 nm with a fixed excitation at 280 nm. The relative changes in fluorescence intensity were plotted against ligand concentration, and the data were fitted to a simulated curve using the appropriate equation for a single binding site.

[4] = Circular dichroism spectroscopy and thermal unfolding; format: physicochemical; conditions: far-UV CD at 215 nm; for β-sheet signals upon heating: ascending temperature
Description: (A) CD spectra were collected from 200 to 260 nm at 25° C. at a concentration of 50 μM in 10 mM sodium acetate buffer (pH 4.5). (B) Thermal unfolding of SBD was measured by monitoring changes in the far-UV CD spectra at 215 nm. (C) CD spectra of SBD were recorded between 200 and 260 nm at various temperatures
CD spectra and thermostabilities were recorded in a 0.1-cm cuvette using an Aviv model 202 CD Spectrometer. Data collection and calculation were carried out as previously described.

[5] = Sedimentation velocity ultracentrifugation; format: physicochemical
Description: The sedimentation velocity studies were performed at 50,000 rpm for 30 μM (solid line) and 60 μM (dotted line) SBD, and absorbance scans were recorded at 280 nm.

[6] = Thioflavin T fluorescence (ThT) assay for fibril formation; format: physicochemical; conditions: SBD sample heated at 97° C.
Description: Purified SBDs or synthetic peptides were dissolved in 10 mM sodium-citrate or phosphate-citrate buffer to a final concentration of 100 μM (at indicated pH). […] The measurements were recorded in a Perkin Elmer LS-55 spectrofluorometer at 25° C.
The relative fluorescence, peaked at 482 nm, subtracted from the background of buffer from the total fluorescence were measured as the amount of fibrillar aggregates with the excitation wavelength (slit width=4 nm) set at 450 nm and monitoring emission wavelength (slit width=8 nm) set at from 470 to 630 nm.

[7] = starch; fold higher than AnGACBM20; cited from earlier work

OC[C@H]1O[C@@H]2O[C@H]3[C@H](O)[C@@H](O)[C@@H](O[C@H]4[C@H](O)[C@@H](O)[C@@H](O[C@H]5[C@H](O)[C@@H](O)[C@@H](O[C@H]6[C@H](O)[C@@H](O)[C@@H](O[C@H]7[C@H](O)[C@@H](O)[C@@H](O[C@H]8[C@H](O)[C@@H](O)[C@@H](O[C@H]1[C@H](O)[C@H]2O)O[C@@H]8CO)O[C@@H]7CO)O[C@@H]6CO)O[C@@H]5CO)O[C@@H]4CO)O[C@@H]3CO [βCD, β-cyclodextrin]
Kd [1]: ~5 µM

maltoheptaose [G7]
Kd [1]: ~5 µM

B1: WT: recombinant starch-binding domain (family 21 carbohydrate binding module) of Rhizopus oryzae glucoamylase, 108 amino acid residues (protein, listed as Rhizopus oryzae)
chain: ASIPSSASVQLDSYNYDGSTFSGKIYVKNIAYSKKVTVVYADGSDNWNNNGNIIAASFSGPISGSNYEYWTFSASVKGIKEFYIKYEVSGKTYYDNNNSANYQVSTSK
modifications: DOMAIN (1)..(108)
Kd [2]: 1.4 ± 0.1 µM
Starch Bmax [2]: 41.1 ± 1.1 µmol/g
Kd [3]: 5.1 ± 0.7 µM
apparent temperature for unfolding [4]: approximately 65 °C
s20 (sedimentation coefficient) ([5]; 30 μM, 50,000 rpm): 1.3 S
oligomeric state in solution ([5]; high concentration (60 μM)): oligomeric forms of SBD appeared
oligomeric state in solution ([5]; low concentration (30 μM)): mainly as a single monomeric species
increase in ThT fluorescence emission intensity at 482 nm [6]: 9 fold
maximal amount of bound protein (Bmax) relative to AnGACBM20 [7]: 40-70 fold

B2: SBD (K108R): SBD mutant K108R (protein)
chain: B1 chain with K108R
modifications: Modified SBD.
β-sheet signals upon heating [4]: still showed strong β-sheet signals upon heating

B3: SBD (K108D): SBD mutant K108D (protein)
chain: B1 chain with K108D
modifications: Modified SBD.
β-sheet signals upon heating [4]: diminished the β-sheet signals upon heating

B4: SBD (K108H): SBD mutant K108H (protein)
chain: B1 chain with K108H
modifications: Modified SBD.
β-sheet signals upon heating [4]: still showed strong β-sheet signals upon heating
